Sequences and labels used below:
B1: HDV Ribozyme (parent)
chain: GGCCGGCAUGGUCCCAGCCUCCUCGCUGGCGCCGGCUGGGCAACAUUCCGAGGGGACCGUCCCCUCGGUAAUGGCGAAUGGGACCCA

The variants in the series derive from B1. In words: self-cleavage, relative activity (ratio to wild type); higher = more cleavage; co-transcriptional.
As to C41U C75G, the self-cleavage amounted to 0.208. The result for A42C C75U reads 0.148. As for A42C C75G, the self-cleavage was determined as 0.0852. In the case of A42U U65G it was 0.457; in that of A42G U65C, 0.643; in that of A42G U47A, 0.391. For the variant C41U U60A, the self-cleavage was found to be 0.815. In the case of G40A G68U it was 0.997; in that of G40A G68A, 1.01; in that of C41A A43G, 0.808. In the case of A42C G73A it was 0.245; in that of A43C U72A, 0.151. In the case of A43C U72G it was 0.293; in that of C41A U69A, 0.831. Consider C41A C63G, for which the self-cleavage turned out to be 0.623. In the case of C41A C63U, the self-cleavage was found to be 1.04. The result for G40U G80C reads 0.0692; that for G40U A71C, 0.327. Take G40C C84A: the self-cleavage worked out at 0.0831.

Turning to G40A U60G, the self-cleavage was 0.916. As for A42C G50A, the self-cleavage stood at 0.325. G40U A42G: the self-cleavage turned out to be 0.306. For the variant A43C C49G, the self-cleavage is 0.287. The result for A42G G50A reads 0.446; that for A42G C44U, 0.639. In the case of A42U U47G it was 0.615. On to G40U U72G, for which the self-cleavage was 0.23.

C41G A42C: the self-cleavage amounted to 0.353.

For the variant C41G A42G, the self-cleavage came out at 0.332. Take G40A U65C: the self-cleavage is 1.12. Turning to G40A U65G, the self-cleavage is 0.601. As to A42G C58A, the self-cleavage stood at 0.655. A43C G55A: the self-cleavage was determined as 0.511. For A42G A71C, the self-cleavage amounted to 0.151. With A42G A77U, the self-cleavage stood at 0. The result for A42C A45U reads 0.306; that for A43C G76A, 0.554. G40U G53C: the self-cleavage was 0.519. The result for C41G A77G reads 0.268; that for A43C U69A, 0.532. Consider A43G A71U, for which the self-cleavage was 0.95. For the variant A43G A71C, the self-cleavage worked out at 1.01. Regarding G40U C62G, the self-cleavage amounted to 0.467. As to C41U U79G, the self-cleavage stood at 0.369. Consider C41U U79A, for which the self-cleavage came to 0.98. Consider C41U G80C, for which the self-cleavage turned out to be 0.188.

Consider C41U G80U, for which the self-cleavage was found to be 0.174. The result for A42U A56G reads 0.306; that for A42C C48G, 0.229. Regarding C41A A83C, the self-cleavage is 0.312.

On to G40U A70C, for which the self-cleavage came to 0.391.

Take A42G G55C: the self-cleavage is 0.675.

As for A42G G55A, the self-cleavage turned out to be 0.485. With C41A A56C, the self-cleavage was 0.937. With A42G C57G, the self-cleavage worked out at 0.453.

As for C41G U69A, the self-cleavage was found to be 0.609.

On to C41G U69C, for which the self-cleavage amounted to 0.772. The result for G40U G73U reads 0.424. For C41G C57G, the self-cleavage came to 0.804.

Turning to A42G G53U, the self-cleavage is 0.817. As for A42G G53A, the self-cleavage stood at 0.496. Turning to C41A C62A, the self-cleavage worked out at 0.77. With G40C U69G, the self-cleavage was determined as 0.361.

Regarding C41A C86U, the self-cleavage is 0.904. With C41A G73C, the self-cleavage was 0.554. In the case of G40C A87G, the self-cleavage is 0.215. Regarding A43C C86U, the self-cleavage was determined as 0.649. Regarding C41U A87U, the self-cleavage is 1. With G40C A51G, the self-cleavage amounted to 0.288. For A42G A78G, the self-cleavage came to 0.

As to A42U C48G, the self-cleavage is 0.646. The result for G40C C44A reads 0.0468. G40C C44U: the self-cleavage came out at 0.0627. In the case of G40C C44G it was 0.106; in that of A43C A78U, 0.0415. In the case of A42G U79C it was 0.0386; in that of A42G U79G, 0.359. For the variant A42U G81A, the self-cleavage worked out at 0.0378.

Consider A42U G81C, for which the self-cleavage worked out at 0.0426. In the case of G40A G54A it was 1.04; in that of G40U C63U, 0.866. For the variant G40U C63G, the self-cleavage was found to be 0.348. Regarding G40U C57U, the self-cleavage turned out to be 0.712. In the case of G40U G50U it was 1.01; in that of A42G G81U, 0.0346. Take C41G C61A: the self-cleavage was found to be 0.928. On to C41A U60A, for which the self-cleavage was found to be 0.979. C41A U60G: the self-cleavage was 0.522.

On to G40A G74A, for which the self-cleavage came out at 0.726. In the case of G40U A87U it was 0.667; in that of A42U C85A, 0.415. In the case of A42U G80A, the self-cleavage was determined as 0.16. On to A42C G52C, for which the self-cleavage worked out at 0.359. Take G40U U46G: the self-cleavage was determined as 0.136. In the case of A42G C75A it was 0.0554. On to G40C U79C, for which the self-cleavage turned out to be 0.0509. Take A42C G81C: the self-cleavage turned out to be 0.0978. Consider C41U C84U, for which the self-cleavage worked out at 0.765. On to G40U A56G, for which the self-cleavage came out at 0.677. In the case of G40U A56U it was 0.801; in that of A42C A78G, 0.317; in that of A42U U79A, 0.145. Turning to A42U U79C, the self-cleavage amounted to 0.0216. In the case of A42U U79G, the self-cleavage came to 0.222. In the case of G40C G59C, the self-cleavage was found to be 0.229. Consider A42U A45U, for which the self-cleavage was determined as 0.554. A43C U47A: the self-cleavage stood at 0.506. On to C41U U65C, for which the self-cleavage stood at 0.954.

Take C41U U65G: the self-cleavage was found to be 0.976. Consider G40U A45C, for which the self-cleavage turned out to be 0.295. In the case of A43C G53U it was 0.425; in that of A43C G53A, 0.554. As for A43C G53C, the self-cleavage came out at 0.63. As for A43C A56U, the self-cleavage was 0.584. The result for A43C G54A reads 0.415; that for A42G G68C, 0.271; that for C41G C44A, 0.192. Turning to C41A G81C, the self-cleavage was 0.169. For G40C G55U, the self-cleavage was found to be 0.205. Turning to A42U C64U, the self-cleavage is 0.594. In the case of A42C U65G it was 0.831; in that of A42C U65A, 0.155; in that of C41A C85U, 0.849. In the case of A43G C48U it was 0.587; in that of A43G C48G, 0.719. In the case of A43G C57G, the self-cleavage stood at 0.356.

Regarding A43G C57A, the self-cleavage stood at 0.628.

As for A43G C57U, the self-cleavage was 0.974. A42C U69C: the self-cleavage was 0.399. For A42C U69G, the self-cleavage worked out at 0.246. In the case of G40C C75U it was 0.0652. As for G40U C85G, the self-cleavage is 0.612. In the case of A42C C84G it was 0; in that of A42C C84U, 0.224; in that of A43C C61G, 0.359. For the variant A43C C61A, the self-cleavage worked out at 0.306. For A43C C61U, the self-cleavage was 0.434.

Turning to C41A C49U, the self-cleavage was found to be 0.91. In the case of A42G C84A it was 0.554. Consider A42G C84U, for which the self-cleavage is 0.525. Take A42G C64A: the self-cleavage stood at 0.302.

Turning to A42G C64G, the self-cleavage was determined as 0.332. On to A42C C85A, for which the self-cleavage is 0.18.

Consider A43C G73C, for which the self-cleavage came to 0.309. In the case of A42C G53U it was 0.231; in that of A42C G53C, 0.297. In the case of C41A A51U, the self-cleavage was found to be 0.981. On to C41G G68A, for which the self-cleavage is 0.45.

With C41G G68C, the self-cleavage came to 0.483.

Take C41A C84A: the self-cleavage was 0.435. Consider A42G C62G, for which the self-cleavage was 0.469. For the variant A42C A56U, the self-cleavage was found to be 0.332. In the case of A42C A56C it was 0.356. Consider C41G G67A, for which the self-cleavage worked out at 0.456. Consider A42U G55U, for which the self-cleavage worked out at 0.597. A42U G55A: the self-cleavage turned out to be 0.604. The result for A42U C86A reads 0.492. The result for A42U C86G reads 0.519. G40C G76A: the self-cleavage came out at 0.163. As for C41U A71G, the self-cleavage was found to be 1.06. Turning to C41U A71C, the self-cleavage worked out at 0.644. On to C41U G52U, for which the self-cleavage came to 0.868. As for C41A G59U, the self-cleavage was 1.11. On to G40U G52C, for which the self-cleavage amounted to 0.891. For G40U G52A, the self-cleavage was 0.513.

Take C41U U46G: the self-cleavage is 1.02. For the variant C41G G59U, the self-cleavage was 0.969.

These data come from the RNAGym collection of RNA variant scans (doi:10.7554/elife.80360).
